Data published in patent US20180327506A1 (AbbVie / Abbott, published 2018).
Read-outs that look alike come from different tables or passages of the source.

Columns and labels:
[1] = target: T1, full-length mature human CD97 (residues Q21-I845) with N-terminal aspartic acid/lysine epitope tag, … (human, UniProt P48960 21-835); assay: flow cytometry on transduced HEK293T; 293 naive MFI 67.6
T1 construct: whole, on cells; also called hCD97; hCD97-NFlag
T1 sequence (looked up): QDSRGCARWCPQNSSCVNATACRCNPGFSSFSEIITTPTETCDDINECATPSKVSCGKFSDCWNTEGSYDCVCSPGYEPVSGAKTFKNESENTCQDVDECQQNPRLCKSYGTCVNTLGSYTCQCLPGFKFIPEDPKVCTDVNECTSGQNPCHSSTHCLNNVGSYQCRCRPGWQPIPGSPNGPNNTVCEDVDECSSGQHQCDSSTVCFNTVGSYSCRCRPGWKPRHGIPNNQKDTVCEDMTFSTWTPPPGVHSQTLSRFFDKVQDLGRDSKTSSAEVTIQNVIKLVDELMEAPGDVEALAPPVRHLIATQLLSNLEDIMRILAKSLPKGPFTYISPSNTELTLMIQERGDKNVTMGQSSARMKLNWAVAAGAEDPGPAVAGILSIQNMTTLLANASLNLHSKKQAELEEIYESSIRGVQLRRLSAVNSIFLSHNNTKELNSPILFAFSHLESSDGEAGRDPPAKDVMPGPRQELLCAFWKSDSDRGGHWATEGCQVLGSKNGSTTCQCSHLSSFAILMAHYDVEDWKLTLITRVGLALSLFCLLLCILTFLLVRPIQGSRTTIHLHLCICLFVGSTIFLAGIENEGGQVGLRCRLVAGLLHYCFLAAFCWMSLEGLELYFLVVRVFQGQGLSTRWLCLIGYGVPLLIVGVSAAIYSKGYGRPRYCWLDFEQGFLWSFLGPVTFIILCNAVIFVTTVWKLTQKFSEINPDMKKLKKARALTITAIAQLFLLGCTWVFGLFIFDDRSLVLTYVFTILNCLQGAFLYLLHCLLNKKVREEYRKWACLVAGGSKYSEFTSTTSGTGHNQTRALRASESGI
Description: (§1) The exemplary antibodies were also tested using flow cytometry to determine their ability to associate with hEMR2, cEMR2 and CD97 expressed on the surface of cells.

[2] = target: T2, full-length mature human EMR2 (residues Q24-N823) with N-terminal aspartic acid/lysine epitope tag, … (human, UniProt Q9UHX3 24-823); assay: as above
T2 construct: Built from NM_013447; The IgK signal peptide is not part of the mature protein; also called hEMR2; hEMR2-NFlag
T2 sequence: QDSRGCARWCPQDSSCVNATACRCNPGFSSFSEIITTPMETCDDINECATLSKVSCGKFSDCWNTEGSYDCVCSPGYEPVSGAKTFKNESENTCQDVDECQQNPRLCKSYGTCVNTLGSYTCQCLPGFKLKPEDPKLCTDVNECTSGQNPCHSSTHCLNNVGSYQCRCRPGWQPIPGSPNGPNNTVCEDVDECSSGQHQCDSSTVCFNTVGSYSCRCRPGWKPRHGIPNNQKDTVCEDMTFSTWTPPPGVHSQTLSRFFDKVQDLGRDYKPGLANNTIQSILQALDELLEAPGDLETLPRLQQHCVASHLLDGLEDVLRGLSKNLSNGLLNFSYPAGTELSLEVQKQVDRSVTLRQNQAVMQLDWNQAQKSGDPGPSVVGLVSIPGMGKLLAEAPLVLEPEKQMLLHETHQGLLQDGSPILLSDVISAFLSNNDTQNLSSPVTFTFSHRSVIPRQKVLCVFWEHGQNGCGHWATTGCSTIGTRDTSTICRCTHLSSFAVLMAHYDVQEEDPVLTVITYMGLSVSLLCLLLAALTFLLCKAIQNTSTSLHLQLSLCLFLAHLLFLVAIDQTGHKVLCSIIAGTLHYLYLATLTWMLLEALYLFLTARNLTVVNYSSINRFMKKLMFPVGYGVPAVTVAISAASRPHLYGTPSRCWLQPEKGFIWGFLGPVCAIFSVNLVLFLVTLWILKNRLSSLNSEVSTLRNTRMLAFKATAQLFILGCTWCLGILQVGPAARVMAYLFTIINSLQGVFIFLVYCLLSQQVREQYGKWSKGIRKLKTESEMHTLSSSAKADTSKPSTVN
Description: as §1

[3] = target: T3, full-length mature cynomolgus EMR2 (residues Q24-N816) with N-terminal aspartic acid/lysine epitope tag, … (cynomolgus monkey (Macaca fascicularis), UniProt A0A2K5WL23 21-816); assay: as above
T3 construct: whole, on cells; also called cEMR2; cEMR2-NFlag
T3 sequence: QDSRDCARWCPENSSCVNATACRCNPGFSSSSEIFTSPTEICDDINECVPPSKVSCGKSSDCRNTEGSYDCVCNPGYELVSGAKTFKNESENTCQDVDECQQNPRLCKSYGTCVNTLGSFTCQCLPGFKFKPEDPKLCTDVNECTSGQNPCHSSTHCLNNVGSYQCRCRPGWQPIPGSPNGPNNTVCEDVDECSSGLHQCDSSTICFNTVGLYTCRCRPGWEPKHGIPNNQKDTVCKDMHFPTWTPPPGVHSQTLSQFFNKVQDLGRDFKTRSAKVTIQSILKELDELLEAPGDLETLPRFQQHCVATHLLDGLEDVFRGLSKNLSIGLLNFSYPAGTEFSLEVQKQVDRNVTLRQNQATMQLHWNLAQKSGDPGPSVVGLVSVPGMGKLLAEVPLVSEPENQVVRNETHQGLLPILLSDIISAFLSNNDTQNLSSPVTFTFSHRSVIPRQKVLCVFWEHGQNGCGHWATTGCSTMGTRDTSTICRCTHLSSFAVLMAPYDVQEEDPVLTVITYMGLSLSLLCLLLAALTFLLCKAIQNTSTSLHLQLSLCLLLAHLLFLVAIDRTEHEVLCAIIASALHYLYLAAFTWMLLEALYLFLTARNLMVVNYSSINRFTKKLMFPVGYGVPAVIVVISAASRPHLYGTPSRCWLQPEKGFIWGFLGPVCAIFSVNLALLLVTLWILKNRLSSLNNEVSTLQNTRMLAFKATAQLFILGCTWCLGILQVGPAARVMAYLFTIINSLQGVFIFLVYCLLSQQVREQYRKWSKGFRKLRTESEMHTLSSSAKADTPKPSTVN
Description: as §1

[4] = target: T1, full-length mature human CD97 (residues …); assay: cell-based or functional assay
[5] = target: T2, full-length mature human EMR2 (residues …); assay: cell-based or functional assay
[6] = target: T3, full-length mature cynomolgus EMR2 …; assay: cell-based or functional assay
[7] = target: T1, full-length mature human CD97 (residues …); assay: cell-based or functional assay; remark: listed apart in the source
[8] = target: T2, full-length mature human EMR2 (residues …); assay: cell-based or functional assay; remark: listed apart in the source
[9] = target: T3, full-length mature cynomolgus EMR2 …; assay: cell-based or functional assay; remark: listed apart in the source
[10] = target: T1, full-length mature human CD97 (residues …); assay: flow cytometry on HEK293T cells overexpressing hCD97
Description: as §1

[11] = target: T1, full-length mature human CD97 (residues …); assay: flow cytometry on transduced HEK293T; 293 naive MFI 102
Description: as §1

[12] = target: T2, full-length mature human EMR2 (residues …); assay: as above
Description: as §1

[13] = target: T3, full-length mature cynomolgus EMR2 …; assay: as above
Description: as §1

[14] = target: T1, full-length mature human CD97 (residues …); assay: flow cytometry on transduced HEK293T; 293 naive MFI 95.6
Description: as §1

[15] = target: T2, full-length mature human EMR2 (residues …); assay: as above
Description: as §1

[16] = target: T3, full-length mature cynomolgus EMR2 …; assay: as above
Description: as §1

[17] = target: T1, full-length mature human CD97 (residues …); assay: flow cytometry on transduced HEK293T; 293 naive MFI 97.2
Description: as §1

[18] = target: T2, full-length mature human EMR2 (residues …); assay: as above
Description: as §1

[19] = target: T3, full-length mature cynomolgus EMR2 …; assay: as above
Description: as §1

B1: SC93.160 (antibody, IgG2a, V domains shown)
VH: QILLVQSGPELKKPGETVKISCKASGYTFTDYGIHWVKQAPGKGLKWMGWINTKTGVPTYADDFKGRFAFSLETSASTAYLQINNLKIEDTATYFCAGGNSLYYGSRPYWGQGTLVTVSA
VL: DIVMTQSPSSLTVTAGEKVTMSCKSSQSLLNSGNQKNYLTWYQQKPGQPPKLLIYWASTRESGVPDRFTGSGSGTDFTLTISSVQAEDLAVYYCQNDYSYPTFGSGTKLELK
notes: murine, IgG2a
FC MFI [1]: 61.8
FC MFI [2]: 26000
FC MFI [3]: 62.6
% live, FAB-saporin killing assay [4]: 105%
% live, FAB-saporin killing assay [5]: 96.8%
% live, FAB-saporin killing assay [6]: 101%

B2: SC93.266 (antibody, V domains shown)
VH: EVKLEESGGGLVQPGGSMKLSCAASGFTFSDAWMDWVRQSPEKGLEWVAEIRSKVNNHETYYAESVKGRFTISRDDSKSSVYLQMNSLRAEDTGIYYCIRNDYFDYWGQGTTLTVSS
VL: DIQMTQTTSSLSASLGDRVTISCSASQGIRNYLNWYQQKPDGTVKLLIYYTSRLHSGVPSRFSGSGSGTDYSLTISNLEPEDIATYYCQQYGKLPYTFGGGTKLEIN
notes: Murine hybridoma antibody
% live, FAB-saporin killing assay [7]: 99.2%
% live, FAB-saporin killing assay [8]: 13.1%
% live, FAB-saporin killing assay [9]: 12.7%
binding result [10]: no binding
FC MFI [11]: 98.3
FC MFI [12]: 49900
FC MFI [13]: 40400

B3: SC93.219 (antibody, IgG2b, V domains shown)
VH: EVQLVESGGGLVQPGGSRKLSCAASGFTFSSYGMHWVRQAPEKGLEWVAYISSSGGTIYYADTVKGRFTISRDNAKNTLFLQMTSLRSEDTAMYYCARRGYGNSFDYWGQGTTLTVSS
VL: QIVLTQSPAIMSASPGEKVTMTCSASSSVSYMYWYQQKPGSSPRLLIYDTSNLASGVPVRFSGSGSGTSYSLTISRMEAEDAATYYCQQWSSYPPFGGGTKLEIK
notes: murine, IgG2b
FC MFI [14]: 87.5
FC MFI [15]: 76.2
FC MFI [16]: 85.3
% live, FAB-saporin killing assay [4]: 102%
% live, FAB-saporin killing assay [5]: 100%
% live, FAB-saporin killing assay [6]: 87.7%

B4: SC93.221 (antibody, IgG1, V domains shown)
VH: QIQLVQSGSELKKPGETVKISCKASGYTFTDYSINWVKQAPGKGFKWMGWINTYTGVPTYADDFKGRFAFSLETSATTAYLQINNLKNEDTATYFCARARYDGYYGRFDYWGQGTTLTVSS
VL: DFLMTQTPLSLPVSLGDQASISCRSSQSIVHSNGDTYLEWFLQKPGQSPKLLIYKVSNRFSGVPDRFSGSGSGTDFTLKISRVEAEDLGVYYCFQGSHVPFTFGSGTKLEIK
notes: murine, IgG1
% live, FAB-saporin killing assay [4]: 99.1%
% live, FAB-saporin killing assay [5]: 101%
% live, FAB-saporin killing assay [6]: 92.2%
FC MFI [17]: 74.2
FC MFI [18]: 5080
FC MFI [19]: 72.5
